According to PMC3286832:

Target: G9a or GLP catalytic SET domains
Test: ITC

Substance: mDnmt3a(39–50)K44me0 peptide
- Kd: 4 to 6 µM
